Measurements taken from patent publication US20090253622A1, “USE OF TLR3 AGONISTS FOR THE TREATMENT OF NEURODEGENERATIVE DISORDERS” (Nederlandse Organisatie voor toegepast - …, priority 2006, published 2009).
Entries after “also recorded” stand apart in the source; their conditions may differ.

Assays:
TLR3 [1] = test: CXCL8 release by cultured human astrocytes (ELISA); assay type: cell-based
Experimental: Cos-7 cells (25,000 cells per well in 96-well plates) were transfected for 5 h with 768 pools of cDNA derived from human brain tumours (5 pooled tumours including meningioma, oligodendroglioma, astrocytoma grades II and IV, and medulloblastoma; NCI CGAP Brn35; Invitrogen) using lipofectamine, after which cells were thoroughly washed. Transfection with green-fluorescent protein-encoding cDNA was used as an internal control for transfection efficiencies. After continued culture of the transfected cells for 48 h, 75 μL of each culture supernatant was harvested and added to cultured human astrocytes seeded at 1,000 cells per well in 75 μL. After 48 h of culture, supernatants were harvested and evaluated for CXCL8 release using ELISA. Stimulation of astrocytes with poly I:C served as positive controls for CXCL8 release in all cases, non-transfected Cos 7 culture supernatants as negative controls.
(§1) Purified recombinant stathmin was exposed to two different conditions that differentially affect the extent of helix formation within the protein chain. One part of the protein preparation was exposed to 5% trifluoroacetic acid (TFA) in water for 1 h at 37° C., strongly acidic conditions that tend to disrupt an alpha helix. In parallel, another part was exposed for 1 h at 37° C. to 5% of the helix-promoting solvent trifluoroethanol (TFE) in phosphate-buffered saline (PBS). After exposure to these different conditions, both protein samples were extensively dialysed for 48 h against several changes of PBS. Next, the samples were analyzed by […] circular dichroism spectroscopy that allows calculation of helical content on the basis of elipticity in the absorption of circularly polarized light. In both cases, another part of the dialyzed sample was tested in parallel for induction of TLR3-mediated release of CXCL8 (IL-8) in human astrocytes as described elsewhere in this application.

TLR2 = target: T1, TLR2 (Homo sapiens, UniProt O60603); test: HEK293 transfectant cells, TLR2 activation; assay type: cell-based; conditions: at levels of at least 50 μg/mL
T1 construct: expressed in transfected cells; host or cells: HEK293
T1 sequence (O60603 21-784, species assumed): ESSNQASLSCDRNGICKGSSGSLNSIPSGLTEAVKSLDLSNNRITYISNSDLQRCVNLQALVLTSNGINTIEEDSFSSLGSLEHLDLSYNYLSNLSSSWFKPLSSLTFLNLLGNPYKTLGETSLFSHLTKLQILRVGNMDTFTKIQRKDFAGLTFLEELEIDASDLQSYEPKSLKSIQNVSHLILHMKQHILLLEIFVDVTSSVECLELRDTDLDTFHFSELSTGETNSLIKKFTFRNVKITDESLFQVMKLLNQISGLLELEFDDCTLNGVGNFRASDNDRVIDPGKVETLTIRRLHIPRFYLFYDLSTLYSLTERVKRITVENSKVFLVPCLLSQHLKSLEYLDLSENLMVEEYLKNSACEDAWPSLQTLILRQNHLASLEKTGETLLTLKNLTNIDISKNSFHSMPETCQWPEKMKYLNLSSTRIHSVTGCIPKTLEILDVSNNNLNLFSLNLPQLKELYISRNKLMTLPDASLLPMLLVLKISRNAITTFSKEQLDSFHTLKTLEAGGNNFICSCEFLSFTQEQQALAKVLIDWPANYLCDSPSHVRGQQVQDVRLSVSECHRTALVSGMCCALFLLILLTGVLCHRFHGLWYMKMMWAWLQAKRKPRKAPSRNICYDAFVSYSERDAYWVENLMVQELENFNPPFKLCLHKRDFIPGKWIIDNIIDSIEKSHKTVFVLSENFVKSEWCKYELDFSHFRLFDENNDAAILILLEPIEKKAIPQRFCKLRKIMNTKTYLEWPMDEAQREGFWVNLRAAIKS
Experimental: (§2) Additional control experiments using murine astrocytes or transfected HEK293 cells were performed essentially as described previously by several other research groups.

TLR4 = target: T2, TLR4 (Homo sapiens, UniProt O00206+Q9Y6Y9); test: HEK293 transfectant cells, TLR4 activation; assay type: cell-based; conditions: at levels of at least 50 μg/mL
T2 construct: expressed in transfected cells; host or cells: HEK293
T2 sequence (O00206 24-839, species assumed): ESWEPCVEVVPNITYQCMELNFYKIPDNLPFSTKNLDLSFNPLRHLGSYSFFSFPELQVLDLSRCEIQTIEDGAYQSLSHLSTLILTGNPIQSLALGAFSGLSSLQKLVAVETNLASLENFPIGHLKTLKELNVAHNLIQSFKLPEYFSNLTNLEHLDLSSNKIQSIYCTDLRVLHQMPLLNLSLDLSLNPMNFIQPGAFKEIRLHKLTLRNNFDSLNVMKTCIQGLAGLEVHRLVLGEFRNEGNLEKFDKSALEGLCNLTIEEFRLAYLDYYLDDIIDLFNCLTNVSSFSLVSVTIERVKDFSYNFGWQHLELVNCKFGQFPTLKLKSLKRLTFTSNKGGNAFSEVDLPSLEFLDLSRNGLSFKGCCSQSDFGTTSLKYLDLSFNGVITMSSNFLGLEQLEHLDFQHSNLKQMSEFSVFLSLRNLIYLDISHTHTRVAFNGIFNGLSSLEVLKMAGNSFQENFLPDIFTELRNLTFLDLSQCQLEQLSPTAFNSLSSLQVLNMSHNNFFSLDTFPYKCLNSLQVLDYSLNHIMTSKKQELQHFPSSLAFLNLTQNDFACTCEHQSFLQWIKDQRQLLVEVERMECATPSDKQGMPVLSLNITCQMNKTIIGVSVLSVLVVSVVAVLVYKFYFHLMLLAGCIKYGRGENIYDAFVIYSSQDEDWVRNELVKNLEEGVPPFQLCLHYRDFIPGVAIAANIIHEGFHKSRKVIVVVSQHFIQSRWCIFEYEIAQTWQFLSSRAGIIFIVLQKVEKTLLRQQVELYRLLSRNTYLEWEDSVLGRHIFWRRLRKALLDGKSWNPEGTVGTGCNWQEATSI
T2 sequence (Q9Y6Y9 17-160 limits assumed, species assumed): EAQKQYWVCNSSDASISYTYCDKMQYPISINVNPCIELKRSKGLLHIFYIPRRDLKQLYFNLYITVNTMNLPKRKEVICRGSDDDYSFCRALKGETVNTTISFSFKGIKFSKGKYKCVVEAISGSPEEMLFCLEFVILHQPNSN
Experimental: as §2

TLR3 [2] = test: IL-6 release by astrocytes from wild-type mice (ELISA); assay type: cell-based; conditions: wild-type mouse astrocytes, 48 h
Experimental: (§3) Astrocytes were cultured in poly L-lysine coated 96 well-flat-bottom plates at 1×10^4 cells per well in 100 l DMEM/HAM-F10 medium containing 10% FCS and antibiotic supplements for 24 h to obtain post-confluent cultures. Recombinant human stathmin was next added to astrocytes, and parallel control stimuli were performed with either poly I:C, an established TLR3 agonist, or ultrapure lipopolysaccharides, established TLR4 agonists. After addition of these stimuli astrocytes were incubated for another 48 h. Astrocyte culture supernatants were subsequently collected and using a commercial ELISA kit levels of IL-6 were determined, as a marker for TLR-mediated activation of murine astrocytes.

[3] = system: astrocytes from TLR3-deficient mice; test: IL-6 release by astrocytes from TLR3-deficient mice (ELISA); assay type: cell-based; conditions: TLR3-deficient mouse astrocytes, 48 h
Experimental: as §3

[4] = Circular dichroism spectroscopy, helical content; assay type: physicochemical; conditions: dissolved in 50% TFE in PBS, without dialysis
Experimental: as §1, with “[…] […]” for “In parallel, another part was exposed for 1 h at 37° C. to 5% of the helix-promoting solvent trifluoroethanol (TFE) in phosphate-buffered saline (PBS). After exposure to these different conditions, both protein samples were extensively dialysed for 48 h against several changes of PBS.”

[5] = system: peripheral blood mononuclear cells (PBMC); test: CXCL8 accumulation in culture of human PBMC; assay type: cell-based; conditions: 24 h, varying doses, two donors
Text: (§4) Peripheral blood mononuclear cells (PBMC) were isolated from two healthy blood donors and from part of the cells, CD14^+ monocytes were isolated by positive selection using magnetic beads coated with an antibody against CD14. The purified CD14^+ monocytes were subsequently cultured for 5 days in the presence of IL-4 and granulocyte-macrophage colony stimulating factor (GM-CSF). These growth factors induce differentiation of monocytes into pre-dendritic cells (pre-DC) within this time frame. At this stage part of the pre-DC culture was stimulated with a mixture of IL-1β and TNF-α for another 2 days in culture, thus stimulating final maturation of the cells into plasmacytoid dendritic cells (DC).
(§5) Using this differentiation method, separate populations of PBMC, pre-DC and DC were generated and after washing of the cells to remove all previously used stimuli, cells were subsequently re-cultured in fresh medium and tested for their response to either poly I:C, stathmin or LPS. Accumulation of CXCL8 in the culture medium over a 24-h period was used as a measure for cellular activation.

[6] = system: pre-dendritic cells (pre-DC); test: CXCL8 accumulation in culture of human pre-dendritic cells; assay type: cell-based; conditions: 24 h, varying doses, two donors
Text: as §4, §5

[7] = system: plasmacytoid dendritic cells (DC); test: CXCL8 accumulation in culture of human mature plasmacytoid dendritic cells; assay type: cell-based; conditions: 24 h, varying doses, two donors
Text: as §4, §5

[8] = system: immature human plasmacytoid dendritic cells (pre-DC); test: Antibody-array profiling of 40 cytokines and chemokines in human pre-DC supernatants; assay type: cell-based; conditions: 50 μg/ml, 48 h
Experimental: To examine the effects of stathmin on the maturation and cytokine production of immature human plasmacytoid dendritic cells (pre-DC), such pre-DC were generated from samples of peripheral blood mononuclear cells by maturation of purified CD14^+ monocytes using GM-CSF and IL-4. The cells were subsequently exposed to 50 μg/ml stathmin and after 48 h, culture supernatants were collected and the accumulation of 40 different cytokines ands chemokines was evaluated by antibody-array profiling using a commercially available antibody array.

human microglia = test: CXCL8 accumulation in cultures of human microglia (ELISA); assay type: cell-based; conditions: microglia from gray or white matter, 24 h
Experimental: Using either gray matter samples or white matter samples of post mortem adult human brains collected within 9 h after death, several cultures of microglia were produced as previously described. Microglia were subsequently stimulated with different TLR agonists and after 24 h accumulation of CXCL8 in the culture medium was quantified using a commercial ELISA assay, as a measure of TLR-mediated activation.

[9] = purified recombinant protein in buffers similar to culture media; Steinmetz and colleagues; cited from earlier work

B1: stathmin: cytosolic phosphoprotein of 149 amino acids (SEQ ID NO: 1); purified recombinant human stathmin from a commercial source (protein)
chain: MASSDIQVKELEKRASGQAFELILSPRSKESVPEFPLSPPKKKDFSLEEIQKKLEAAEERRKSHEAEVLKQLAEKREHEKEVLQKAIEENNNFSKMAEEKITHKMEANKENREAQMAAKLERLREKDKHIEEVRKNKESKDPADETEAD
modifications: Human; (44)..(138) Stathmin-like alpha helix domain
notes: purified recombinant human stathmin from a commercial source
TLR3 [1]; at 100 μg/mL
  astrocyte CXCL8 response, dose dependence: still not maximal
TLR3 [1]; doses between 5 and 100 μg/mL, four donors
  CXCL8 release by cultured human astrocytes (in words): marked CXCL8 release
TLR3 [1]; human astrocytes, three TLR3 siRNAs
  stathmin-induced response under TLR3-directed small interfering RNA: largely—in one case completely—inhibited
TLR2
  response of HEK293 transfectant cells via TLR2: does not contain any endotoxin contaminants that trigger responses
TLR4
  response of HEK293 transfectant cells via TLR4: does not contain any endotoxin contaminants that trigger responses
TLR3 [2]
  IL-6 release: dose-dependent IL-6 induction; also recorded: marked IL-6 release
[3]
  IL-6 release: completely absent; also recorded: fully abrogated
[4]
  helical content: 98%
[5]
  CXCL8 accumulation in the culture medium: substantial increase in CXCL8 accumulation
[6]
  CXCL8 accumulation in the culture medium: substantial increase in CXCL8 accumulation
[7]
  CXCL8 accumulation in the culture medium: substantial increase in CXCL8 accumulation
[8]
  reduction of levels of the p70 subunit of IL-12: two-fold
[8]; vs untreated control
  CXCL8 induction ratio: > 1.5
  IL-10 induction ratio: > 1.5
  MCP-1 induction ratio: > 1.5
  p40 subunit of IL-12 induction ratio: > 1.5
Human microglia
  CXCL8 accumulation in the culture medium: enhanced CXCL8 accumulation
[9]
  fraction structurally ordered into alpha helix: 40-60%
